The domain aggregation screens of Martell et al. (2025)

Test: soluble fraction after stress (log2 fold change); higher = more stays soluble; pooled small domains, quantitative proteomics
Conditions: stress: pH 4
Method in brief: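 Pooled custom libraries of small protein domains were stressed at pH 4 and then measured by high-throughput quantitative proteomics. The fold change in the amount of each domain that stays soluble after the acid stress serves as a measure of aggregation propensity. Fold changes are given on a log2 scale, and higher values mean more of the domain stayed soluble.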

Row | Sequence | soluble fraction (log2)
1 | HMNPETPAQQAVRKRLIVSVQFYRRLKDTPLKAVWQVAARDTLVNGYNLFLKRNIHAFNDRTLSTPSALS | 0.089
2 | HMNPFPDNTAEVLSQFKNIIVPELNTGQLSKLLRARYLVDTVGINKVEGLPFTAQELEEKIESLINSF | -0.705
3 | HMNPGQIIRKLRQDQGMTLAVLAKYANLDPGNLSRIERDDLNISFNLLEKLSLILNVSPIVFFH | -0.0716
4 | HMNPLSELSFEERRELFLEAAVRLFEEKGYKNTSVEDIAGELGFTKKVFYYYWKNKREIVQEIHDRGMA | -0.986
5 | HMNPNFIEVSHGRLRVNVPLSAYEGTTYHIKPEEAEKLKRTLASRYPWLTPNALKVFIEEAEQAMRERIQ | 0.217
6 | HMNPSKEFNMSDLLKAKMVGDVSAAKRREKAGALLHIGYGNAKTFLKKLNHFSISREEWDKVIAAMEEF | 0.0295
7 | HMNPSVSSDERILLQKALGILSAEQKQIVMLHAVAGIKHREIAKLLDMPIATVLSKYSRAVNKLRHAMEA | -0.298
8 | HMNPTTDFFKLEGIDATRILVFDQVGRQVAQFSQPAQQMDIQALPAGVYALRIENADGQVYSARIVK | -0.773
9 | HMNPVVATTIILDGEIIKDNLAEANLSEEWLLEELKRQNFNDVKEVFYAEWLDGKQLFAYPYTK | -0.789
10 | HMNQDIIEIGNNIQKIRKKNGISQSVLAEKIDVAGNSIYRMEGATTVMGVDKLINIADALNTSPMDILPAR | 0.0428
11 | HMNQDMINFDKLSVRLKNVLIENNLKTVDSLLNYPAEEFEYLTNLGEKTLQELLTYRNELAASNNIQ | -1.17
12 | HMNQGKLIEMLQEMKEIAHSQNNYLTKNEIANYLGDTVLSKEQLQAVYHYLGENHIEVEGYVYIP | -0.51
13 | HMNQIATSTQAIITTLSFLNTSSIFKLPVGDTASRPTGVSPGTLRFNSQEDSAEIYKADDGTGSAGWTEVA | -1.3
14 | HMNQIDEATAATITTLNFLNTNSEFKIPVGDTATRPGTPAIGMMRFNSENDKAEIYVADFDGDGNPGWINL | -1.52
15 | HMNQILDFTREVKNLPEQDKIKIVEALWSIIYSNKDADIYETNLMRRLAGLLYIDNKTMGDIKEKIKQNL | -0.421
16 | HMNQNHFLDSVVEFAKDEASRAFFQKAVKKLGEGLVEEAMGEVKMREADGSVNSRAPYFIALLENWMENR | -0.128
17 | HMNQNIYVPKLEGLQIEEASSILKSKGLNIEITDSIFRKDAVPGAIIEQTPKPNSRVKTGRNIYVSIYSK | -0.199
18 | HMNQSEMIGSRLKEERLQQKLTLKQLSEKVGLSIGYLSQVERGYGTLSLSALKKLSSALGLEMSTFFD | 0.121
19 | HMNQTGQYENAAKRFNQLITIDSSDKRAYLQLGISNYNLGNKEKADSLFNIIRNSKDKLLIEELDNFLT | -0.169
20 | HMNQYALTDREKNVLGLLVDGLSYKMIADKENISFHTVNAHVRKIYEKLHVHSLAEAVSKALKENL | 0.056
21 | HMNQYRKLDGDVQNQIIYILSEYPKLPATIVYQRLLDTNTIVKKDVSLSTVNRFVQKYKDSKGIT | 0.0672
22 | HMNREDYIKAIFKIAEREGEASNQRIADSLGVSRASASEMVKKLIQEGFVVAEGRQLSLSAEGERIA | -0.32
23 | HMNREEKKALTRRQIIDVATRLFRQHGIHNTDLKTIATEAGVSVVTFYKYFDSKEALIGTIAAEQ | -0.23
24 | HMNRNHVFDSNGPDLRLRGTAQQLFEKYLQLGRDATSGGDRVMAEGYFQHAEHYFRILNAMNQAAMQH | -0.0835
25 | HMNRPYETLFTGLTTDEASAIVGKLEEYGAADYKIEGDTIKVPAAQEPDLKAKLLLDGYPKS | 0.0842
26 | HMNRTEYMAALRRALSVLPEEERASALRYYEEYFDDAGPENEEKVIADLGAPEKVAGQILADYRE | -0.462

Row | Sequence | soluble fraction (log2)
27 | HMNSDQMKEHLDNLVDMAKKNDNTLIDTEIVNYFVGKPDIELNTDMMTKIFDYLDEHHVAVLS | -1.85
28 | HMNSEFPFNGGRIVDNVPANRLQIFFDEKPDADVRTRLKQNGFRWAPNSGAWQSYRHGYTLDWARREFNA | -0.197
29 | HMNSEPKTKLQEIAQERGLAAPVYETTHTGPDHDRIFSASVTVGDVVAAGEARSRKGAESEAAIAAIKALG | 0.155
30 | HMNSFGWESLIDKEGIADTDLHPSGWVRIDDRRIFVVSEGDFIDKGSGVTVLSVDGNRVVVRELI | -1.03
31 | HMNSHLEEGRHGLQIGDPGIVRARIESDPEGETDMPVVVIDGRNISWNEFGRMVATYTGFQFKLEM | -0.58
32 | HMNSHQNELDNALTEAHTASRRLLEGTDEYLDLSSQPAYIRRLQHLLAQKYNLGSLSSGVEPNRHIRLLQ | -0.174
33 | HMNSIDIENELVKIIEKNGQPMSFDDLVFKLDSLYSTRYKFAKGYIRTIILNSNRIASIGKTSTYSLYKWN | -0.31
34 | HMNSKKETLLSYLYNHSTWSSRNDLSNFLNVSTRQVTNYINEINKNETIVLSSNKGYKINPKFIGKN | 0.22
35 | HMNSKMTYSDLIGNIEQGNVSSVELASDGKSATVTLTDNSQKQVNIPSLDSFVTYVQDHIKAGTLSVEE | 0.109
36 | HMNSKSDDELLSKTTSLLIHAAKIDENYTDKEKEIIKKTLIQLGVKESKADQIMLTAEINEE | -0.36
37 | HMNSKYILLQVSDIPKTSLVLERQFGVTEYSVQDEHTLRIYDTSLDMAAVNKALVVQDIAVISSQL | -1.3
38 | HMNSLFPLSLKYLREQANITQAELAQKLDVTQQAVGRWERGQTSPDYETLKRLSVLFNVSVDYLLGV | -0.359
39 | HMNSNIIKTINDELSIRKGKYGPYIMYKTKKMKRPKFKSIGDNTPDEFLADKGSISEIILWIN | -0.452
40 | HMNSSHRLIGLDPGLRVTGWGIVDAIGTKLVHVANGSVKSQQNAPLATRLLELENGLEEVFDNWQPDFA | -0.0459
41 | HMNSVLPQEVKSSLNDFFTKYAPGSIAQKLINHASFTGGKVVVTGVELTQTQADDLKKAFKDKFF | 0.22
42 | HMNSVTLEHIVYDFRVFNMLKGSGINDIDELIKAAEDGRLFKIIGSNLTYKRIKKSAAEFGVILPDKPG | -0.45
43 | HMNSVYTPDPKELAKAIKIVTAAREAEQKGQGVIAVDGRMVDAPVVSQALRILELARLAGMEVSE | 0.22
44 | HMNTAIPIAIDQLRIGMYIQLGLNWMSHPFPVSSFRIASESQIEILRGLGLAEVRYVPAKSDPVP | -0.911
45 | HMNTDEYEQKRGEILDAAQRLIYTKGYERMSIQDILDELKISKGAFYHYFDSKQSLLEALTARMMTE | -0.408
46 | HMNTDIHRLLDEAFVRVDMTPDAQHLKEEIRANLVARVDELEASGVPSADAARRAIAELGDVRELL | -0.671
47 | HMNTFDLSKLEEIILASRDKAMKTKEFTELDNLKNLFITAGLDVQMSKNGIKLIKGPKFNSSLLEDF | -0.741
48 | HMNTIIIDILPKGLSIAGNQTEPKSLIQQLLMARRADPAQPILLRPAIAVPVQNVVELIDRLTAAGI | -0.412
49 | HMNTISEADAKRIALERAGLTAADYVKVDYDQDDNEYEVEMRSGNTEYEVKISGSTGAVLEYDSETD | -0.0384
50 | HMNTISTLEITTKKDIRILDESELLKSKSSKNNIFNYLLASGDFNLLKDKLNEIDEFSDEIISYQLN | -0.356
51 | HMNTKQRTAVMRILKQSSDPVSADDVFAALKDEYPSLALSTVYRNLERFADESMVKKDVWSDGIVRYSLAD | -0.471
52 | HMNTLGTNIAKLRESQKLTQEELGKLSGVSRVSIYKIETGQSTPRDTTLQNIAEALHTTPSALRS | 0.22

Row | Sequence | soluble fraction (log2)
53 | HMNTLLYAPKVSPNPFTPNADGINDVVNISYKLLRVISAVPISVEVFDLSGRLIKTLYSGVDPLGEY | 0.425
54 | HMNTLPASVQPKKGRLYAVIQTKENGKSKPVWRSLGLPEGSNKSKVNKAFREVVKQFEEEYAERLAR | 0.22
55 | HMNTLPTDELMKYGIINEDLSFSKKLNADDIQKFLQGYTIVADNDKNRATFQLTENNTKLKVIFLER | -1.69
56 | HMNTLRFPEGTPEKDRMSIILASYNSGIGHVNDARRLARLNGEDPNSWEVVARYLQLKAQPEYYESEAVK | -0.548
57 | HMNTPAENFDKAVEKYKSTNSATEKDAAFKVIEDEWIKLSDEEKKERQDEYDSIFESEGDRV | 0.22
58 | HMNTQGWEIFEGRITTADTDLNPSGWIRIDGQRIFVISDAGFIDKGKEVSILSVDGNRVLVRK | -0.632
59 | HMNTSMIEHMDKSTFIRFVFTNPVTHDQAVAKLMEKHMWFSTEEKAEAEIDKLLNKTNSLIESGGKLTW | 0.22
60 | HMNTTLQLDTILRLEKNAHLLENFVRAGFTDSELGKLTDADLLQIGVPKIGDRRRLLAALAERAH | -0.29
61 | HMNTVSPAVSAQLRQELGGELNNANFQQLQQYLQAGQRDEAIVYLTSLGIESPRAVSIVNNAMDQIG | 0.00938
62 | HMNVDIVEITKNSSPNQISKVIDIGAIQIVEDLMSFGIMKAIDTPLEDSEIEQLLEKYNLIVDLIE | -2.19
63 | HMNVDSIPGKSGIVTQGIDNLKAMGRVTVNGMEWTARSKDGSLIEEGKVVRVYGVEGVKLIVEED | -0.72
64 | HMNVDSLPGEKAVVIKTIDNLRGTGQAVVNGLEWSAKSKDETIIDEGKVVRIVAVEGVKLVVEEE | -0.252
65 | HMNVEALIGREGRVTDKIEANGYGRVKVDGDSWKAKSANGAEIRQNTDVRILSIDSVIITVEP | 0.22
66 | HMNVESLVGKQVIVSETIDNLKATGQVKVNGLEWTARAADETDIIPQGTEVTINEVSGVKLIVSR | 0.0287
67 | HMNVESMVGKQGKVVVEIDNISAKGMIKVDGMEWTARSVDGEIIPKDSLVAVVSVEGVKAMVRKAE | 0.15
68 | HMNVGKRLKSLREKYKFSLEEVAKKIKSSAGAISRYENNERKINSESLIRLSNLYNVSPEYILYG | 0.391
69 | HMNVKQALLELMQRKPELTGSAIARAIGYSPAVISQYLKDGYPGDVVKLTTLIGDFIRRIDEKERS | -0.48
70 | HMNVKVYATIDGDNFKVSGLKPGSNVRVYSSNGSAVFEKKAGDSEMIIPAGAWTKGIYVISADDQSIKVT | -0.0844
71 | HMNVLGQTAIVRSLRLDATFGEVLLADGGAGLIFKARTHGDETFKKGDRVVLLEYLKDQHAYRVISETDFL | -1.18
72 | HMNVLLGISELSHATGVTPAQLRYWVSQGYIKNYGSNKKNKFSLETVFMVRSIKIFQNQGYTLSASAKRAA | -0.285
73 | HMNVNFVQANLANLPNIQAIYQKGNEMLNDMKRGEAREIDEAYSRVDNGVGTEKDFKVLLSFRDKIIAAMQ | ≥ 0.43
74 | HMNVNSMIGKEGRVIEDIDNFNETGRIIVDGMEWTARAVNEQSITSGQKVVIREIQGVKAMVVPM | -0.299
75 | HMNVNTNTILKSLMETYPDSTVFKKAEIVSIANSLGFKKSDYSPLTSTDNRTDVRGQYDLSAVIIPMRESN | -0.11
76 | HMNVPYEMVTQNGEVFYKYKVQPGEGVFAVSRTFSVSVAEILRVNPEANKGLKNGQVLLIPVPKDMIA | -0.147
